Laboratory results published in PMC12014896 (2025).

B1: COVIC-393 (antibody, V domains shown)
VH: EVQLVQSGGGLVQPGGSLKLSCAASGFTFSGSAMHWVRQASGKGLEWVGHIRSKANSYATAYAASVKGRFTISRDDSKNTAYLQMNSLNTEDTAVYYCTREDIVGVPVAKDWFDPWGQGTLVTVSS
VL: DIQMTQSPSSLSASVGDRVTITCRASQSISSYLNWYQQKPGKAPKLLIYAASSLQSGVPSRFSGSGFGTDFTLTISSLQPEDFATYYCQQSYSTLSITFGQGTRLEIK
B2: COVIC-136 (antibody, V domains shown)
VH: EVQLLESGGGLIQPGGSLRLSCAASGFTVSSNYMSWVRQAPGKGLEWVSVIYSGGSTYYADSVKGRFTISRDNSKNTLYLQMNSLRAEDTAVYYCARDHVRPGMNIWGQGTMVTVSS
VL: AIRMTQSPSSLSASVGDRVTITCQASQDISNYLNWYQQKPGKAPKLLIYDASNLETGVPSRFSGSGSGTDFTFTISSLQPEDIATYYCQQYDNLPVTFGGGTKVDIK
B3: COVIC-366 (antibody, V domains shown)
VH: EVQLVESGGGLVQPGRSLRLSCAASGFSLDDYGMHWVRQAPGKGLEWVSGISWNSGDRGYADSVKGRFTISRDNAKNSLYLQMNSLRAEDTALYYCAKGSGAHYDIMTGARLDYWGQGTLVTVSS
VL: DIQMTQSPSSLSASVGDRVTITCRASQSITNYLNWYQQKPGKVPKLLIYAASILQSGVPSRFSGSGSGTDFTLTISSLQPEDFATYYCQQSYSTPWTFGQGTKVEIKR
B4: COVIC-369 (antibody, V domains shown)
VH: EVRLVESGGGLIQPGGSLTLSCAASGVIVSRNYMNWVRQAPGKGLEWVSVIYSGGSTFYADSVKGRFTISRDNSKNTLYLQMNSLRAEDTAVYYCARWGPNYYGSGSDHYNSYGMDVWGQGTTVTVSS
VL: EIVLTQSPGTLSLSPGESATLSCRASQGVSSSSLAWYQQRPGQAPRLLMYGASSRATGIPDRFSGSGSGTDFTLTISRLEPEDFAVYYCQQSGSSPQYTFGQGTKLEIKR
B5: COVIC-252 (antibody, V domains shown)
VH: EVQLLESGGGLIQPGGSLRLSCAASGFIVSSNYMSWVRQAPGKGLEWVSVIYSGGSTFYADSVKGRFTISRDNSNNTLYLQMNSLRAEDTAVYYCARDYGDFYFDYWGQGTLVTVSS
VL: DIQMTQSPSTLSVSPGERATLSCRASQSVSSNLAWYQQKPGQAPRLLIYGASTRATGIPVRFSGSGSGTESTLTISSLQSEDFAVYYCQQYNKWPRTFGQGTKVEIK
B6: COVIC-293 (antibody, V domains shown)
VH: QVTLRESGPALVKPTQTLTLTCTFSGFSLSTSGMCVSWIRQPPGKALQWLARIDWDDDKYYSTSLKTRLTISKDTSKNQVVLTVTNVDPVDTGTYYCARVQVAAAGSPYDYWGQGTLVTVSS
VL: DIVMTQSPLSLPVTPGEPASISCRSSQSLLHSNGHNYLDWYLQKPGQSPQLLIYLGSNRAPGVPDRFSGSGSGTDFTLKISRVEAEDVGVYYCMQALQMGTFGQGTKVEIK
B7: COVIC-168 (antibody, V domains shown)
VH: EVQLVESGGGLIQPGGSLRLSCAASGVTVSSNYMNWVRQAPGKGLEGVSVIYSGGTTYYADSVKGRFTISRDNSKNTLYLQMNSLRAEDTAVYYCARDTVVYGMDVWGQGTTVTVSS
VL: DIQLTQSPSFLSASVGDRVTITCWASQGISSYLAWYQQKPGKAPKLLIYTASTLQSGVPSRFSGSGSGTEFTLTISSLQPEDFATYYCQQLNSYPLTFGGGTKVEIKR
B8: COVIC-151 (antibody, V domains shown)
VH: QVQLQESGPGLVKPSQTLSLTCTVSGGSISSYGYYWNWIRQHPGKGLEWIGYIYYSGSTYYNPSLKSRVTISVDTSKNQLSLRLNSVSAADTAVYYCARDFGGNSNYFDYWGQGTLVTVSS
VL: AIQLTQSPSSLSASVGDRVTITCRTSQGISSALAWYQQKPGKAPKLLIYDASSLESGVPSRFSGSGSGTDFTLTISSLQPEDFATYYCQQFNSYPLTFGGGTKVEIKR
B9: COVIC-59 (antibody, V domains shown)
VH: QVQLQESGGGLVQAGGSLRLSCAASGRTFSEYAMGWFRQAPGKEREFVATISWSGGSTYYTDSVKGRFTISRDNAKNTVYLQMNSLKPDDTAVYYCAAAGLGTVVSEWDYDYDYWGQGTQVTVSS
B10: COVIC-55 (antibody, V domains shown)
VH: QVQLQESGGGLVQAGGSLRLSCAASGRTFSEYAMGWFRQAPGKEREFVATISWSGGSTYYTDSVKGRFTISRDNAKNTVYLQMNSLKPDDTAVYYCAAAGLGTVVSEWDYDYDYWGQGTQVTVSS
B11: COVIC-79 (antibody, V domains shown)
VH: EVQLVESGGGLIQPGGSLRLSCAASGFIVSRNYMIWVRQAPGKGLEWVSVIYSGGSTFYADSVKGRFTISRDNSKNTLYLQMNSLRAEDTAVYYCARDLEVAGAIDYWGQGTLVTVSS
VL: EIVLTQSPGTLSLSPGERATLSCRASQSISSSYLAWYQQKPGQAPRLLIYGATSRATGTPDRFSGSGSGTDFTLTINRLEPEDFAVYYCQQYGSSPGYTFGQGTKLEIK
B12: COVIC-170 (antibody, V domains shown)
VH: EVQLVQSGAEVKKPGESLKISCKGSGYSFTSYWIGWVRQMPGKGLEWMGIIYPGDSDTRYSPSFQGQVTISADKSISTAYLQWSSLKASDTAMYYCVRSYNWNYFDYWGQGTLVTVSS
VL: AIQLTQSPSSLSASVGDRVTITCRASQGISSGLAWYQQKAGKAPKLLIYDVSSLESGVPSRFSGSGSGTDFTLTISSLQPEDFATYYCQQFLSYPWTFGQGTKVEIKR
B13: COVIC-134 (antibody, V domains shown)
VH: EVQLVESGGGVVQPGRSLRLSCAASGFTFSSYGMHWVRQAPGKGLEWVAVIWYDGSNKYYADSVKGRFTISRDNSKNTLYLQMNSLRAEDTAVYYCAKGPDILTGYYNYYYYGMDVWGQGTMVTVSS
VL: QSVLTQPPSVSGAPGQRVTISCTGSSSNIGAGYDVHWYQQLPGTAPKLLIYGNSNRPSGVPDRFSGSKSGTSASLAITGLQAEDEADYYCQSYDSSLSGFYVVFGGGTKLTVL
B14: COVIC-124 (antibody)
chain: QVQLQESGGGLVQAGGSLRLSCAASGRTFSEYAMGWFRQAPGKEREFVATISWSGGSTYYTDSVKGRFTISRDNAKNTVYLQMNSLKPDDTAVYYCAAAGLGTVVSEWDYDYDYWGQGTQVTVSSGGSGGSQVQLQESGGGLVQAGGSLRLSCAASGRTFSEYAMGWFRQAPGKEREFVATISWSGGSTYYTDSVKGRFTISRDNAKNTVYLQMNSLKPDDTAVYYCAAAGLGTVVSEWDYDYDYWGQGTQVTVSSGGGGSGGGGSEPKSCDKTHTCPPCPAPELLGGKKKPLDGEYFTLQIRGRERFEMFRELNEALELKDAQAGKEPGGGGGSGGGGSQVQLQESGGGLVQAGGSLRLSCAASGRTFSEYAMGWFRQAPGKEREFVATISWSGGSTYYTDSVKGRFTISRDNAKNTVYLQMNSLKPDDTAVYYCAAAGLGTVVSEWDYDYDYWGQGTQVTVSSGGSGGSQVQLQESGGGLVQAGGSLRLSCAASGRTFSEYAMGWFRQAPGKEREFVATISWSGGSTYYTDSVKGRFTISRDNAKNTVYLQMNSLKPDDTAVYYCAAAGLGTVVSEWDYDYDYWGQGTQVTVSS
B15: COVIC-183 (antibody, V domains shown)
VH: EVHLVESGGGLVQPGGSLRLSCAASGFTFSDHYMDWVRQAPGKGLEWVGRTRNKANSYTTEYAASVKGRFTISRDDAKNSLYLQMNSLKTEDTAVYYCARVHRWAYCINGVCFGAYSDYWGQGTLVTVSS
VL: not shown
B16: COVIC-294 (antibody, V domains shown)
VH: EVQLVESGGGLVQPGGSLRLSCAASGITVSSNYMNWVRQAPGKGLEWVSVIYSGGSTFYADSVKGRFTIARDNSKNTLYLQMNSLRAEDTAVYYCAREGLLVGPTGRGLGMDVWGQGTTVTVSS
VL: DIQMTQSPSSLSASVGDRVTITCQASQDINNYLNWYQQKPGKAPKLLIYDASNLQTGVPSRFSGSGSGTDFTFTISSLQPEDIATYYCQQYADLPYTFGQGTKLQIK
B17: COVIC-141 (antibody, V domains shown)
VH: QVQLQESGPGLVKPSQTLSLTCTVSGGSISSGGYYWSWIRQHPGKGLEWIGYIYYSGNTYYNPSLKSRVTMSVDTSKNQFSLKLTSVTAADTAVYYCASTARPLTNAEYFQHWGQGTLVTVSS
VL: DIQLTQSPGTLSLSPGERATLSCRASQSVSSSYLAWYQQKPGQAPRLLIYGTSSRATGIPDRFSGSGSGTDFTLTISRLEPEDFAVYYCQQYRTFGQGTKVEIK
B18: COVIC-262 (antibody, V domains shown)
VH: QVQLVQSGAEVKKPGSSVKVSCKASGGTSSSYAISWVRQAPGQGLEWIGGIIPIFDTTKYAQKFQGRVTITADESTNTAYMEVSSLRSEDTAVYYCAKVADRVGASTGELDYWGQGTLVTVSS
VL: EVVLTQSPATLSLSPGERGTLSCRASQSISNYLAWYQQKPGQAPRLLIYNASNRATGVPARFSGSGSGTDFTLTISSLEPEDFAVYYCQQRSNWPPWTFGQGTKVEIKR
B19: COVIC-139 (antibody, V domains shown)
VH: EVQLVESGGGVVQPGRSLRLSCAASGFTFSSYGMHWVRQAPGKGLEWVAVISYDGSNKYYADSVKGRFTISRDNSKNTLYLQMNSLRAEDTAVYYCANGFGEYYYYAMDVWGQGTTVTVSS
VL: NFMLTQPHSVSESPGKTVTISCTGSSGSIASNYVQWYQRRPGSAPTTVIYEDNQRPSGVPDRFSASIDSSSNSASLTISGLKTEDEADYYCQSYDSSNWVFGGGTKLTVL
B20: COVIC-313 (antibody)
chain 1: QVQLVQSGAEVKKPGSSVKVSCKASGGTFGISWVRQAPGQGLEWMGRIIPILGTANHAQKFQGRVTITADKSTGTVYMELSSLRSEDTAVYYCARDGDSGSYYETLGFDYWGQGTLVTVSSASTKGPSVFPLAPEVQLVESGGGLVKPGGSLRLSCAASGFTFSPYSMNWVRQAPGKGLEWVSSISVSNIYTYYADSVKGRFTISRDNAKNSLYLQMNSLRAEDTAIYYCARDLKKGGIQYDAFDIWGQGTVVTVSS
chain 2: QSALTQPPSASGSPGQSVTISCTGTSSDVGGYNYVSWYQQHPGKAPKLMIYEVNKRPSGVPDRFSGSKSGNTASLTVSGLQAEDEADYYCSSYAGSNNLVFGGGTKLTVLQPKAAPSVTLFPPEIVLTQSPATLSLSPGERATLSCRASQSVNDYLAWYQQKPGQAPRLLIYDASNRATGFPARFSGSGSGTDFTLTISSLEPEDFAVYYCQQRSNWPPTFGQGTRLEIK
B21: COVIC-97 (antibody, V domains shown)
VH: EVQLVESGPEVKKPGTSVKVPCKASGFTFTSSAVQWVRQARGQRLEWIGWIVVGSGNTNYAQKFQERVTITRDMSTSTAYMELSSLRSEDTAVYYCAAPSCSGGRCYDGFDIWGQGTMVTVSS
VL: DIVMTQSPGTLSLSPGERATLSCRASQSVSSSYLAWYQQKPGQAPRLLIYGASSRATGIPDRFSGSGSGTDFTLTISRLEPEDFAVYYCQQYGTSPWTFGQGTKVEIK
B22: COVIC-304 (antibody, V domains shown)
VH: QVQLQQWGAGLLKPSETLSLKCAVYGGSFSGYYWGWIRQSTGKGLEWIGEINRSGSTNYNPSLKSRVTISVDTSKNQFSLKLSSVTAADTAVYYCARGGARYYYGSGSYRSTPRPYYFDYWGQGTLVTVSS
VL: SYELTQPPSVSVAPGETARITCGGDNIGRRHVHWYQQKPGQAPVLVIYDDSDRPSGIPDRFSGSNSGNTATLTIGRVEAGDEADYYCQVWGSSNDPHVFGTGTKLTVLG

biological target: SARS-CoV-2 spike RBD (Wuhan-Hu-1) (Severe acute respiratory syndrome …, UniProt P0DTC2); experiment: SPR

| Binder | Kd [nM] |
| --- | --- |
| B1 | 0.233 |
| B2 | 9.86 |
| B3 | 0.0703 |
| B4 | 0.209 |
| B5 | 15.1 |
| B6 | 0.429 |
| B7 | 24.1 |
| B8 | 6.31 |
| B9 | 201 |
| B10 | 115 |
| B11 | 0.745 |
| B12 | 1.16 |
| B13 | 90 |
| B14 | 167 |
| B15 | 6.97 |
| B16 | 0.0593 |
| B17 | 107 |
| B18 | 4.67 |
| B19 | 44.6 |
| B20 | 0.155 |
| B21 | 4.96 |
| B22 | 197 |
